Tests used:
[1] = target: MUC1 on normal activated human T cells (human) (UniProt P15941); test: FACS on PHA-L-activated human PBMC, live αβTCR+ cells; gating scheme, donor not given
[2] = target: MUC1 on normal activated human T cells (human) (UniProt P15941); test: FACS on PHA-L-activated human PBMC, live αβTCR+ cells, donor 190980805C
[3] = target: MUC1 on normal activated human T cells (human) (UniProt P15941); test: FACS on PHA-L-activated human PBMC, live αβTCR+ cells, donor 3011029
[4] = target: MUC1 on normal activated human T cells (human) (UniProt P15941); test: FACS on PHA-L-activated human PBMC, live αβTCR+ cells, donor 3009223
[5] = target: MUC1 on normal activated human T cells (human) (UniProt P15941); test: FACS on PHA-L-activated human PBMC, live αβTCR+ cells, donor 191180405C

MUC1 on normal activated human T cells (human), sequence (P15941 24-1255): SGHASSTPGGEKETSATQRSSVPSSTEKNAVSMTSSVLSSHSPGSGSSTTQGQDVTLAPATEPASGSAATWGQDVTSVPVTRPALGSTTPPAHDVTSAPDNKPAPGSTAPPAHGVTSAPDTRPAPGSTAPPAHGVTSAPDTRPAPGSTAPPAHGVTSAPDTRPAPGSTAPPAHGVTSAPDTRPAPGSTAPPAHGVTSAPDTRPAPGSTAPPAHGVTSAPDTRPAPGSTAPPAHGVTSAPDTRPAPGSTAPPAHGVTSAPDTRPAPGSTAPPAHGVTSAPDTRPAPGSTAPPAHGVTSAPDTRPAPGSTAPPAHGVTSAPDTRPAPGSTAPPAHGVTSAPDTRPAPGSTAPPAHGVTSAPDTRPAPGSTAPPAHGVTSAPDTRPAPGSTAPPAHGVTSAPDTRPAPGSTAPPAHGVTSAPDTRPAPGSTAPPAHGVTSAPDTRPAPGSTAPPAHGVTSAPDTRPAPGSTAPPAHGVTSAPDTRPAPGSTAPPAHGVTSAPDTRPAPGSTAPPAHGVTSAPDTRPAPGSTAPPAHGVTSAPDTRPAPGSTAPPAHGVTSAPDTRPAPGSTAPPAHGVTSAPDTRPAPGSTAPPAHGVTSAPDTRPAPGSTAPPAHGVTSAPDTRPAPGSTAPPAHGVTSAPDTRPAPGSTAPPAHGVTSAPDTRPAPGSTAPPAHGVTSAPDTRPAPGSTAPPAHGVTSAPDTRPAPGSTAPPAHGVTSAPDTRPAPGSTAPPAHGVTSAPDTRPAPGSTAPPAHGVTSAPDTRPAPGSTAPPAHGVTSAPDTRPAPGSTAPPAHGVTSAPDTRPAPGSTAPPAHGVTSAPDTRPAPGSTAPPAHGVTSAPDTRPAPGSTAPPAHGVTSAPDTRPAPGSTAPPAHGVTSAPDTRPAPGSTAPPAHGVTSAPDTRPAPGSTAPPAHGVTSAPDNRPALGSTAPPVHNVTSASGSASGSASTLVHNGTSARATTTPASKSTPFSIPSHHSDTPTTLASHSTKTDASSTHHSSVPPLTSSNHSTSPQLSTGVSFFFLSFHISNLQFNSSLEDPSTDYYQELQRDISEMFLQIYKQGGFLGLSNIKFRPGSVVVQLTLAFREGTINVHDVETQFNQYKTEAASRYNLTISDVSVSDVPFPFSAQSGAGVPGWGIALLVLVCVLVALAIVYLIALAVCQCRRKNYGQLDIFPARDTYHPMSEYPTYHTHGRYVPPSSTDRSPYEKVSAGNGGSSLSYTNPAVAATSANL

Substance | percent of αβTCR+ T cells in the dashed MUC1+ box (antibody-bound T cells) [1] | percent of αβTCR+ T cells in the dashed MUC1+ box (antibody-bound T cells) [2] | percent of αβTCR+ T cells in the dashed MUC1+ box (antibody-bound T cells) [3] | percent of αβTCR+ T cells in the dashed MUC1+ box (antibody-bound T cells) [4] | percent of αβTCR+ T cells in the dashed MUC1+ box (antibody-bound T cells) [5]
Isotype (antibody) | 0.29% | 0.15% | 0.36% | 0.05% | 0.29%
HMFG1 (antibody) | 28.1% | 28.2% | 23.2% | 10% | 28.1%

From patent US20250382384A1
